{"source": "patent US20020155503"}
{"substance": "recombinant form of the human Syk enzyme", "values": [{"measurement": "phosphorylation of library peptide, anti-phosphotyrosine ELISA (absorbance at 450 nm); preferred substrate of the sub-set", "setting": "Asp-Glu-Glu-Tyr-Asp", "result": "Library Sub-Set 2 Asp-Glu-Glu-Tyr-Asp [SEQ ID No. 12]"}, {"measurement": "phosphorylation of library peptide, anti-phosphotyrosine ELISA (absorbance at 450 nm); preferred substrate of the sub-set", "setting": "Asp-Tyr-Glu-Glu-Val", "result": "Library Sub-Set 4 Asp-Tyr-Glu-Glu-Val [SEQ ID No. 14]"}, {"measurement": "phosphorylation of library peptide, anti-phosphotyrosine ELISA (absorbance at 450 nm); preferred substrate of the sub-set", "setting": "Asp-Glu-Glu-Asp-Tyr", "result": "Library Sub-Set 1 Asp-Glu-Glu-Asp-Tyr [SEQ ID No. 11]"}, {"measurement": "phosphorylation of library peptide, anti-phosphotyrosine ELISA (absorbance at 450 nm); preferred substrate of the sub-set", "setting": "Asp-Glu-Tyr-Glu-Asp", "result": "Library Sub-Set 3Asp-Glu-Tyr-Glu-Asp [SEQ ID No. 13]"}, {"measurement": "phosphorylation of library peptide, anti-phosphotyrosine ELISA (absorbance at 450 nm); preferred substrate of the sub-set", "setting": "Tyr-Ser-Ile-Ile-Nle", "result": "Library Sub-Set 5 Tyr-Ser-Ile-Ile-Nle [SEQ ID No. 15]"}]}
